The values that follow come from patent US20120294796A1 (MacroGenics, published 2012).

Assay [1] addresses T1, human B7-H3 on the surface of human cell lines (human, UniProt Q5ZPR3 29-534).
T1 construct: whole, on cells; also called B7-H3 present on the surface of cancer cells
T1 sequence (looked up): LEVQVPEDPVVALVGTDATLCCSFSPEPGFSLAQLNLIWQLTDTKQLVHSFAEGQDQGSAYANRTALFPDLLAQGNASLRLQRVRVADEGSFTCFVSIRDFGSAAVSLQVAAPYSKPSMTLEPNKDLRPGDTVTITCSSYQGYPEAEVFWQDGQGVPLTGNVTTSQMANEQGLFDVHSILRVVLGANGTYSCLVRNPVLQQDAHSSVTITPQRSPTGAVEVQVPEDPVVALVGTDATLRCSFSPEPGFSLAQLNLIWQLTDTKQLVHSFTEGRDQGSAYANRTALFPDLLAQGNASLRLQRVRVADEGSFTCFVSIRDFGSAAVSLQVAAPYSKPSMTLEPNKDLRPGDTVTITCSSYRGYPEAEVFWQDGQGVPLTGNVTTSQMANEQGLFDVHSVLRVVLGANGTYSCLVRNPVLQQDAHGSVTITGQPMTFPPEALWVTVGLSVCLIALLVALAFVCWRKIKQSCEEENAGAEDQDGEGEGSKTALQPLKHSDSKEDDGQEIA
Kind of assay: FACS, fluorescein-labeled mAb, A498 cells. (Flow cytometry measures light scatter and fluorescence of single cells or particles in a stream.)

For assay [2], the target named is T1, human B7-H3 on the surface of human …. Kind of assay: FACS, fluorescein-labeled mAb, A549 cells.
Assay [3] has the same target. Kind of assay: FACS, fluorescein-labeled mAb, LNCaP cells.

B1: BRCA84D (antibody, IgG1, V domains shown)
VH: DVQLVESGGGLVQPGGSRKLSCAASGFTFSSFGMHWVRQAPEKGLEWVAYISSDSSAIYYADTVKGRFTISRDNPKNTLFLQMTSLRSEDTAMYYCGRGRENIYYGSRLDYWGQGTTLTVSS
VL: DIAMTQSQKFMSTSVGDRVSVTCKASQNVDTNVAWYQQKPGQSPKALIYSASYRYSGVPDRFTGSGSGTDFTLTINNVQSEDLAEYFCQQYNNYPFTFGSGTKLEIK
Consider B1, for which the “FACS MFI” value in assay [1] was 30.6 MFI; in assay [2] it was 25 MFI; in assay [3] it was 16.4 MFI.

B2: PRCA157 (antibody, IgG1, V domains shown)
VH: EVQQVESGGDLVKPGGSLKLSCAASGFTFSSYGMSWVRQTPDKRLEWVATINSGGSNTYYPDSLKGRFTISRDNAKNTLYLQMRSLKSEDTAMYYCARHDGGAMDYWGQGTSVTVSS
VL: DIQMTQSPASLSVSVGETVTITCRASESIYSYLAWYQQKQGKSPQLLVYNTKTLPEGVPSRFSGSGSGTQFSLKINSLQPEDFGRYYCQHHYGTPPWTFGGGTNLEIK
With B2, the “FACS MFI” value in assay [1] is 58.8 MFI; in assay [2], 44.3 MFI; in assay [3], 16.4 MFI.

B3: BRCA69D (antibody, IgG1, V domains shown)
VH: QVQLQQSGAELARPGASVKLSCKASGYTFTSYWMQWVKQRPGQGLEWIGTIYPGDGDTRYTQKFKGKATLTADKSSSTAYMQLSSLASEDSAVYYCARRGIPRLWYFDVWGAGTTVTVSS
VL: DIQMTQTTSSLSASLGDRVTISCRASQDISNYLNWYQQKPDGTVKLLIYYTSRLHSGVPSRFSGSGSGTDYSLTIDNLEQEDIATYFCQQGNTLPPTFGGGTKLEIK
notes: also called BRCA69A (probable misprint)
Regarding B3, the figures for the “FACS MFI” value in assay [1], in assay [2] and in assay [3] were 84.1 MFI, 60.5 MFI and 92.4 MFI, respectively.
